# Measurements taken from patent US20210324080A1 (JIANGSU HUAIYU PHARMACEUTICAL, published 2021).
# Positions count from the first letter of the chain named.
# B1: 97A8D1 fully human CTLA-4 antibody (human IgG1, kappa) (antibody, V domains shown)
# VH: QVQLVESGGGVVQPGRSLRLSCVASGFTFNNYGMNWVRQAPGKGLEWVAVIWYGGRNKFYADSVKGRFTISRDNSKNTLYLEMNSLRAEDTAVYYCARADWGGWFDPWGQGTLVTVSS
# VL: EIVLTQSPGTLSLSPGERATLSCRASQSVSSTYLAWYQQKPGQAPRLLIHGAFSRATGIPDRFSGSGSGPDFTLTISRLEPEDFAVYYCQQYGTSPFTFGPGTKVDIK
# notes: also called mAb49; mAb049
# B2: 92C8B6 fully human CTLA-4 antibody (human IgG1, kappa) (antibody, V domains shown)
# VH: QVQLVESGGGVVQPGRSLRLSCAASGFTFSNFGMHWVRQAPGKGLEWVAVIWYDGSNKYYADSVKGRFTISRDNSKNTLFLQMNGLRAEDTAVYYCAKGGILMAGTLDYWGQGTLVTVSS
# VL: DIQMTQSPSSLSASVGDRVTITCRASQSVSTYLNWYQQKPGKAPKLLIYAASSFQSGVPSRFSGSGSGTDFTLTISSLQPEDFATYFCQQSYSTPFTFGPGTKVDIK
# notes: also called mAb42; mAb042
# B3: 31C12F3 fully human CTLA-4 antibody (human IgG1, kappa) (antibody, V domains shown)
# VH: QVQLVESGGGVVQPGRSLILSCAASGFTFSSYGMHWVRQAPGKGLEWVAVVWYDGSNKYYADSVKGRFTISRDNSKNTLYLQMSSLRAEDTAVYYCARGGIVVPGLFEYWGQGSLVTVSS
# VL: B2 VL with T20A, A25T, V29I, T31N, Y32L, K45E, A51P, S63R, F87Y
# notes: also called mAb010
# B4: 40C4C6 fully human CTLA-4 antibody (human IgG1, kappa) (antibody, V domains shown)
# VH: QVQLVESGGGVVQPGRSLRLSCAASGFTFSSYGMHWVRQAPGKGLEWVAVIWYDGRNKYYADSVKGRFTISRDNSKNTLYLQMNSLRAEDTAVYYCARASGSYSYYFDYWGQGTLVTVSS
# VL: DIQMTQSPSSLSASVGGRVTITCRASQSISSFLNWYQHELGKAPKLLIYGASSLQSGVPSRFSGSGSGTDFTLTISSLQPEDFATYYCQQTYSTPFTFGPGTKVDIK
# notes: also called mAb09; mAb009
# Molecular target: T1, CTLA-4-hFc (immunogen A; hFc-labeled CTLA-4 extracellular domain protein) (human, UniProt P16410 36-161)
# T1 construct: range 36-161; Made in HEK293 cells, purified on protein A; also called CLTA-4-hFc; CTLA-4 protein; not shown: human IgG Fc fragment (hFc) of the pCpC vector
# T1 sequence (looked up): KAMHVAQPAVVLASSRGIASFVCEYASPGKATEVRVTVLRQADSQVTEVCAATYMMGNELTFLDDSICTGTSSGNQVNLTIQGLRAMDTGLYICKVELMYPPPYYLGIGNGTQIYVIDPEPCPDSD
# Assay: receptor-ligand blocking assay: CTLA-4 protein, antibody titrated, blocked ligand B7.1, inhibition (%)
# Experimental: CTLA-4 extracellular domain protein (CTLA-4-hFc) was diluted with PBS to a final concentration of 1.0 μg/mL, and then added to a 96-well ELISA plate as 100 μl per well. The plate was covered with a plastic film and incubated overnight at 4° C. The plate was washed twice with plate washing solution [PBS containing 0.01% (v/v) Tween 20] on the next day, and added with blocking solution [PBS containing 0.01% (v/v) Tween 20 and 1% (w/w) BSA] and blocked at room temperature for 2 hours. […] After 2 hours, the plate was washed 3 times with a plate washing solution [PBS containing 0.01% (v/v) Tween 20]. HRP (horseradish peroxidase) labeled avidin diluent (purchased from Sigma) was added 100 microliters per well, and after the plate was incubated for 2 hours at 37° C., it was washed with plate washing solution [PBS containing 0.01% (v/v) Tween 20] for 3 times. […] TMB substrate was added to each well. After incubated at room temperature for 30 minutes, the plate was added with […] stop solution (1.0N HCl) to each well. An ELISA plate reader (SpectraMax 384plus, Molecular Device) was used to read the A450 nm value.
row,Binder,IC50 (read off the curve)
1,B1,1 to 2 nM
2,B2,1 to 2 nM

# Molecular target: T2, recombinant His-labeled hCTLA-4 ECD protein (human, UniProt P16410 36-161)
# T2 construct: extracellular domain; also called human CTLA-4 ECD; not shown: His label
# T2 sequence (looked up): T1 sequence (looked up)
# Assay: SPR Biacore T200, antibody captured by anti-human Fc, 1:1 model
# Experimental: Anti-human Fc IgG was fixed on flow cell 1 and 2. HBS-EP+ (10 mmol/L HEPES, 150 mmol/L NaCl, 3 mM EDTA, 0.05% P20, pH 7.4) was used as the running buffer, and anti-human Fc IgG was fixed using the fixing wizard template. The flow cells 1 and 2 connected in series with S CM5 sensor chip were activated with freshly mixed 50 mmol/L NHS and 200 mmol/L EDC. Anti-human Fc IgG was diluted to […] with 10 mmol/L NaAC (pH 4.5) and injected into activated flow cells 1 and 2. The remaining active coupling sites were blocked with 1 mol/L ethanolamine.
# The recombinant His-labeled hCTLA-4 ECD protein was diluted to 50 nmol/L, and then serially diluted 4 times with HBS-EP+ buffer at a 2-fold ratio. […] Each antibody was injected into the CM5 sensor flow cell 2 at a flow rate of 10 μL/min to achieve a response of 230 RU. Then the prepared His-labeled hCTLA-4ECD protein was injected into flow cells 1 and 2 at a flow rate of 30 μL/min for 180 seconds. The buffer flow was maintained for 400 seconds for dissociation measurement (30 μL/min). To remove the tested antibody from the surface, 10 mmol/L glycine-HCl pH1.5 was injected for 20 seconds (30 μL/min). Flow cell 1 was used as a reference flow cell. The above steps were repeated for each concentration of serially diluted His-labeled CTLA-4ECD protein. The KD value of each antibody was evaluated using Biacore T200 evaluation software 1.0, and a 1:1 binding model was used to fit the data.
Binder,Kd,koff,kon
B1,2.15 nM,0.00087 s⁻¹,405000 M⁻¹ s⁻¹
B3,2.62 nM,0.00118 s⁻¹,450000 M⁻¹ s⁻¹
B2,2.52 nM,0.00187 s⁻¹,744000 M⁻¹ s⁻¹
B4,2.36 nM,0.0017 s⁻¹,720000 M⁻¹ s⁻¹

# Molecular target: T3, CTLA-4 on human T lymphocytes (PBMC, CD3+ T cells) (human, UniProt P16410 36-223)
# T3 sequence (looked up): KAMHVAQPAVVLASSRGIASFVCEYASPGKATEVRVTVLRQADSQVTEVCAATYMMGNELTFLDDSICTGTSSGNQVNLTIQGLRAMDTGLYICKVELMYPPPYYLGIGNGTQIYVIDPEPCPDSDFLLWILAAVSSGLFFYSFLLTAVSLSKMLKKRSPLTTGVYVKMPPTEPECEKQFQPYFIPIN
# Assay: cell-based or functional assay
Binder,"IL-2 secretion, pg/ml, at 0.13 ug/ml, N = 1","IL-2 secretion, pg/ml, at 0.13 ug/ml, N = 2","IL-2 secretion, pg/ml, at 0.37 ug/ml, N = 1","IL-2 secretion, pg/ml, at 0.37 ug/ml, N = 2","IL-2 secretion, pg/ml, at 1.1 ug/ml, N = 1","IL-2 secretion, pg/ml, at 1.1 ug/ml, N = 2","IL-2 secretion, pg/ml, at 3.3 ug/ml, N = 1","IL-2 secretion, pg/ml, at 3.3 ug/ml, N = 2","IL-2 secretion, pg/ml, at 10 ug/ml, N = 1","IL-2 secretion, pg/ml, at 10 ug/ml, N = 2"
B1,1520 pg/mL,1500 pg/mL,2110 pg/mL,1960 pg/mL,2660 pg/mL,2610 pg/mL,4660 pg/mL,3330 pg/mL,5080 pg/mL,5560 pg/mL
B3,1660 pg/mL,1630 pg/mL,1760 pg/mL,2000 pg/mL,2650 pg/mL,3630 pg/mL,4420 pg/mL,3330 pg/mL,5020 pg/mL,3810 pg/mL
B2,1570 pg/mL,1390 pg/mL,2810 pg/mL,1860 pg/mL,3610 pg/mL,2930 pg/mL,4860 pg/mL,3490 pg/mL,6670 pg/mL,5200 pg/mL
B4,2140 pg/mL,1830 pg/mL,2370 pg/mL,2160 pg/mL,3200 pg/mL,3010 pg/mL,3770 pg/mL,3620 pg/mL,5270 pg/mL,4810 pg/mL

# Same assay, conditions: not given
Binder,"IL-2 secretion, pg/ml, at 30 ug/ml, N = 1","IL-2 secretion, pg/ml, at 30 ug/ml, N = 2"
B1,6090 pg/mL,7540 pg/mL
B3,5920 pg/mL,7370 pg/mL
B2,7240 pg/mL,6590 pg/mL
B4,6840 pg/mL,7410 pg/mL
